The nature of this data set: soluble on expression in E. coli; label from the status in PepcDB or PDB records.
For “AAADSTSMSYSVTLTGPGPWGFRLQGGKDFNMPLTISRITPGSKAAQSQLSQGDLVVAIDGVNTDTMTHLEAQNKIKSASYNLSLTLQKSKRPIPISTTAPPVQTPLPVIPHQKDPALDTNGSLVAPSPSPEARASPGTPGTPELRPTFSPAFSRPSAFSSLAEASDPGPPRASLRAKTSPEGARDLLGPKALPGSSQPRQYNNPIGLYSAETLREMAQMYQMSLRGKASGVGLPGGSLPIKDLAVDSASPVYQAVIKSQNKPEDEADEWARRSSNLQSRSFRILAQMTGTEFMQDPDEEALRRSSTPIEHAPVCTSQATTPLLPASAQPPAAASPSAASPPLATAAAHTAIASASTTAPASSPADSPRPQASSYSPAVAASSAPATHTSYSEGPAAPAPKPRVVTTASIRPSVYQPVPASTYSPSPGANYSPTPYTPSPAPAYTPSPAPAYTPSPVPTYTPSPAPAYTPSPAPNYNPAPSVAYSGGPAEPASRPPWVTDDSFSQKFAPGKSTTSISKQTLPRGGPAYTPAGPQVPPLARGTVQRAERFPASSRTPLCGHCNNVIRGPFLVAMGRSWHPEEFTCAYCKTSLADVCFVEEQNNVYCERCYEQFFAPLCAKCNTKIMGEVMHALRQTWHTTCFVCAACKKPFGNSLFHMEDGEPYCEKDYINLFSTKCHGCDFPVEAGDKFIEALGHTWHDTCFICAVCHVNLEGQPFYSKKDRPLCKKHAHTINL”, the “soluble on expression in E. coli” value is “soluble”.

With “AAKHHFDEIHYLDIVDCNGGDHHKAFATNFNPEINIREITQKGKYWENGRWIETEPQEIHKTLTYPSIGERESYLLYHEELESLVKNFPTIKRARFWMTFGQEYLTHLRVMQNIGMTRIDPIMYNGVEIVPIQFLKAVLPNPGDLGENYTGETSIGCRIRGIRDGKERTYYIWNNCSHEVAYKETGTQG”, the “soluble on expression in E. coli” value was “not soluble”. For “AALDDLIDTLGECEDTNKDDPPYTGPVVLDPMDSTYLEALGIKEGTIPPEYRKLLEKNEAITGPLPDSPKPMGIDHAIDALSSDFT” the value was “soluble”; for “ADDAKPRVKVPSSAKAGETVTVKALISHKMESGQRKDADGKLIPRSIINRFTCELNGVNVVDVAIDPAVSTNPYFEFDAKVDAAGEFKFTWYDDDGSVYEDVKPIAVA”, “soluble”; for “ADQRIKVAKPVVEMDGDEMTRIIWQFIKEKLILPHVDVQLKYFDLGLPNRDQTNDQVTIDSALATQKYSVAVKCATITPDEARVEEFKLKKMWKSPNGTIRNILGGTVFREPIICKNIPRLVPGWTKPITIGRHAHGDQYKATDFVVDRAGTFKIVFTPKDGSSAKQWEVYNFPAGGVGMGMYNTDESISGFAHSCFQYAIQKKWPLYMSTKNTILKAYDGRFKDIFQEIFEKHYKTDFDKYKIWYEHRLIDDMVAQVLKSSGGFVWACKNYDGDVQSDILAQGFGSLGLMTSVLVCPDGKTIEAEAAHGTVTRHYREHQKGRPTSTNPIASIFAWTRGLEHRGKLDGNQDLIRFAQTLEKVCVETVESGAMTKDLAGCIHGLSNVKLNEHFLNTSDFLDTIKSNLDRALGRQ”, “soluble”. For “ADVHDKATRSKNMRAIATRDTAIEKRLASLLTGQGLAFRVQDASLPGRPDFVVDEYRCVIFTHGCFWHHHHCYLFKVPATRTEFWLEKIGKNVERDRRDISRLQELGWRVLIVWECALRGREKLTDEALTERLEEWICGEGASAQIDTQGIHLLA” the value was “soluble”; for “ADVPAGVQLADKQTLVRNNGSEVQSLDPHKIEGVPESNVSRDLFEGLLISDVEGHPSPGVAEKWENKDFKVWTFHLRENAKWSDGTPVTAHDFVYSWQRLADPNTASPYASYLQYGHIANIDDIIAGKKPATDLGVKALDDHTFEVTLSEPVPYFYKLLVHPSVSPVPKSAVEKFGDKWTQPANIVTNGAYKLKNWVVNERIVLERNPQYWDNAKTVINQVTYLPISSEVTDVNRYRSGEIDMTYNNMPIELFQKLKKEIPNEVRVDPYLCTYYYEINNQKAPFNDVRVRTALKLALDRDIIVNKVKNQGDLPAYSYTPPYTDGAKLVEPEWFKWSQQKRNEEAKKLLAEAGFTADKPLTFDLLYNTSDLHKKLAIAVASIWKKNLGVNVNLENQEWKTFLDTRHQGTFDVARAGWCADYNEPTSFLNTMLSDSSNNTAHYKSPAFDKLIADTLKVADDTQRSELYAKAEQQLDKDSAIVPVYYYVNARLVKPWVGGYTGKDPLDNIYVKNLYIIKH”, “soluble”; for “AEFQVTSNEIKTGEQLTTSHVFSGFGCEGGNTSPSLTWSGVPEGTKSFAVTVYDPDAPTGSGWWHWTVVNIPATVTYLPVDAGRRDGTKLPTGAVQGRNDFGYAGFGGACPPKGDKPHHYQFKVWALKTEKIPVDSNSSGALVGYMLNANKIATAEITPVYEIKLE”, “soluble”. For “AESSADKFKRQHMDTEGPSKSSPTYCNQMMKRQGMTKGSCKPVNTFVHEPLEDVQAICSQGQVTCKNGRNNCHKSSSTLRITDCRLKGSSKYPNCDYTTTDSQKHIIIACDGNPYVPVHFDASV” the value was “soluble”. For “AFSFAAEHGLELDKVDIDLTDKAAMQDGARTFANYCMGCHSAKFQRYERVADDLGIPHELMLEKLVFTGAKIGDHMQIGMKPSDAKTWFGAAPPDLTLVARVRGTDWLYTYLRSFYEDPSRPYGVNNKVFPNVGMPNVLVGLQGNQVVGCKQVQTVVDGKKQFDPLTGSPLTHEACDQLTITPNSGTLTAEQFDEKVKNLVTFLAYSANP”, the “soluble on expression in E. coli” value is “not soluble”. For AFTCHCRRSCYSTEYSYGTCTVMGINHRFCCL the value was “soluble”. For “AGLKLMGAPVKLTVSQGQPVKLNCSVEGMEEPDIQWVKDGAVVQNLDQLYIPVSEQHWIGFLSLKSVERSDAGRYWCQVEDGGETEISQPVWLTVEGVPFFTVEPKDLAVPPNAPFQLSCEAVGPPEPVTIVWWRGTTKIGGPAPSPSVLNVTGVTQSTMFSCEAHNLKGLASSRTATVHLQ” the value was “soluble”; for “AHDNVVIFGDSMVADPLVSEVITGRLSSQPHCPHSPTSYAEIAAKRLGLESRNFSCAGAQVHIGGPFLKTSFIAQIDTAIAAGALDTHTRRVWITQGFNDAWSGHPAAQVVATMSEVIGRIRAHAPNARIQIVGYPQITHQGQLCLVR”, “not soluble”. For “AHHHHHHGSAGVRLVGVWKQFGSFTAVKDLTLEVRDGEFLVLLGPSGCGKTTTLRMIAGLEEPTKGQIYIGDKLVADPEKGVFVPPKDRDIAMVFQSYALYPHMTVYENIAFPLKLRKVPKQEIDKRVREVAEMLGLTELLNRKPRELSGGQRQRVALGRAIVRRPQVFLMDEPLSNLDAKLRVKMRAELKKLQKQLGVTTIYVTHDQVEAMTMGDRIAVMNQGVLQQVGTPEEVYEKPANTFVAGFIGSPPMNFLDATITEDGFLDFGEFRLKLLPDQFEVLQDYVGKEVIFGIRPEDIYDALFAQVKIPGENMARGVVDIIENLGGEKIVHISIGGLIVTAKFPGESRVKEGDEIDIVFDMKKIHIFNKKTGKAIL” the value was “soluble”; for “AHHHHHHGSDKVYLTWWQVDRAIFALAEKLREYKPDVIVGIARGGLIPAVRLSHILGDIPLKVIDVKFYKGIEERGEKPVITIPIHGDLKDKKVVIVDDVSDTGKTLEVVIEEVKKLGAKEVKVACLAMKPWTSVVPDYYVFRTEKWIVFPWEEFPVIERE”, “not soluble”. For the sequence “AHHHHHHGSIIRGDEPEQKALLRKLYRAGNYFMMGDEAIAYGAIFAGCRFYAGYPITPSSEIAETMARELPKVGGYYLQMEDEIASIAAIIGASWTGLKAMTATSGPGFSLMQENIGYAVMTETPVVIVDVQRSGPSTGQATKGAQGDFFQARWGTHGDHPIIAVSPISVEDAFWETIRAFNIAEQLRTPVIVLFDGILGHTREQIRIPDPDEVEISYRKLPRNEEEAKLPFGDPHGDGVPPMPIFGKGYFTHVTGSTHKENGLRDVYTPEVHDRLVRRLHKKIEKNRHIYEKYNEYFTDDAEILVVSWGVSARPSLGAVKKAREEGIKAGLFVPKTVHPFPGEKMRELGKKVRAILVPEMNLGQLILEVQRFVNDDVILKGVNKIGGVPITVEEILREIRGVA”, the “soluble on expression in E. coli” value was “not soluble”. Turning to “AHHHHHHGSKILVVAPCLLTPFYVYRGPKDKEYKTSSELRKLLAELSDEWFIFLYPCPELLAVGWPRPPMSREVLERLGTRERSKIIADFIGRVLTEEKPEKVVFVGVKGSPTCGVFTTTSSNPDEFPYVAVQEFFYLSKEERLRKYKELTKNFKVINAPGLLFEILMARFPEAIFVEFDKDNIEESIRRIREVVKE”, the “soluble on expression in E. coli” value is on record as “soluble”.
